Patent US20260242478A1 (published 2026)
Where no end group is shown, it is not given here.

B1: Phage-2491 (peptide)
peptide: SVKWCTPSWMCEHM
notes: Clonal phage of the peptide-180 library; not shown: pIII filament protein of the bacteriophage to which the peptide is fused
B2: Phage-2485 (peptide)
peptide: VSPLCKPDWMCNGF
notes: as for B1
B3: Phage-2496 (peptide)
peptide: ESRLCIPAWMCESQ
notes: as for B1
B4: Phage-2484 (peptide)
peptide: LVRWCVPEWMCAGM
modifications: cysteine pairing not given here; also: displayed on phage as fusion to pIII, pIII and linker sequence not given here
notes: as for B1
B5: Phage-2487 (peptide)
peptide: DYKWCTPIWMCAGD
modifications: cysteine pairing not given here; also: displayed on phage as fusion to pIII, pIII and linker sequence not given here
notes: as for B1
B6: Phage-2493 (peptide)
peptide: MGNWCTPPWMCTGF
notes: as for B1
B7: Phage-2490 (peptide)
peptide: DFKWCTPPWMCDVF
notes: as for B1
B8: Phage-2495 (peptide)
peptide: LEKWCIPLWMCQTA
notes: as for B1
B9: Phage-2489 (peptide)
peptide: WAKWCTPEWMCVVH
notes: as for B1
B10: Phage-2494 (peptide)
peptide: HFKMCVPPWMCLFD
notes: as for B1
B11: Phage-2483 (peptide)
peptide: DSRWCIPDWMCELE
notes: as for B1
B12: Phage-2492 (peptide)
peptide: IEKMCIPAWMCTDK
notes: as for B1
B13: Phage-2486 (peptide)
peptide: FPHLCIPYWMCVRT
notes: as for B1
B14: Phage-2482 (peptide)
peptide: VVNWCTPAWMCSGF
modifications: cysteine pairing not given here; also: displayed on phage as fusion to pIII, pIII and linker sequence not given here
notes: as for B1
B15: Phage-2488 (peptide)
peptide: VSIWCIPPWMCVEK
notes: as for B1
B16: Phage-2497 (peptide)
peptide: WPKLCTPPWMCTVD
modifications: cysteine pairing not given here; also: displayed on phage as fusion to pIII, pIII and linker sequence not given here
notes: not shown: fused to pIII of the bacteriophage
B17: Phage-2502 (peptide)
peptide: EPKMCTPSWMCRGF
modifications: cysteine pairing not given here; also: displayed on phage as fusion to pIII, pIII and linker sequence not given here
notes: as for B16
B18: Phage-2503 (peptide)
peptide: SETWCIPAWMCLDG
modifications: cysteine pairing not given here; also: displayed on phage as fusion to pIII, pIII and linker sequence not given here
notes: as for B16
B19: Phage-2498 (peptide)
peptide: GEHWCIPAWMCEKM
modifications: cysteine pairing not given here; also: displayed on phage as fusion to pIII, pIII and linker sequence not given here
notes: as for B16
B20: Phage-2499 (peptide)
peptide: GEKWCIPEWMCQDV
modifications: cysteine pairing not given here; also: displayed on phage as fusion to pIII, pIII and linker sequence not given here
notes: as for B16
B21: Phage-2501 (peptide)
peptide: SDKWCIPVWMCEES
modifications: cysteine pairing not given here; also: displayed on phage as fusion to pIII, pIII and linker sequence not given here
notes: as for B16
B22: Phage-2500 (peptide)
peptide: GTNWCKPDWMCVGL
modifications: cysteine pairing not given here; also: displayed on phage as fusion to pIII, pIII and linker sequence not given here
notes: as for B16

The binders below were run against T1, 006 PSMA Fab (assay: phage ELISA: biotinylated PSMA Fab on neutravidin plate pre-incubated with PSMA antigen (competitor), clonal phage supernatant, anti-M13-HRP detection).
T1 construct: also called Anti-PSMA Fab; anti-PSMA Fab
Procedure: (§1) Clonal phage were harvested as crude supernatants and screened via standard ELISAs. […] Prior to the addition of clonal phage. wells were incubated with blocking buffer and PSMA antigen or blocking buffer alone. Without washing or aspirating, clonal phage supernatants were then added to the wells and incubated for a short time. Wells were then washed followed by detection of bound phage using a horse radish conjugated anti-M13 antibody.
In the case of B1, the “phage binding ELISA signal in presence of PSMA antigen” value is reported as 0.0739.
In the case of B2, the “phage binding ELISA signal in presence of PSMA antigen” value is reported as 0.0787.
With B3 the “phage binding ELISA signal in presence of PSMA antigen” value was 0.0772.
With B4 the “phage binding ELISA signal in presence of PSMA antigen” value was 0.0945.
With B5 the “phage binding ELISA signal in presence of PSMA antigen” value was 0.0707.
In the case of B6, the “phage binding ELISA signal in presence of PSMA antigen” value is reported as 0.0704.
With B7 the “phage binding ELISA signal in presence of PSMA antigen” value was 0.0763.
With B8 the “phage binding ELISA signal in presence of PSMA antigen” value was 0.0777.
With B9 the “phage binding ELISA signal in presence of PSMA antigen” value was 0.15.
In the case of B10, the “phage binding ELISA signal in presence of PSMA antigen” value is reported as 0.101.
For B11, the “phage binding ELISA signal in presence of PSMA antigen” value was 0.0935.
B12 was tested, and the “phage binding ELISA signal in presence of PSMA antigen” value was 0.0698.
B13 was tested, and the “phage binding ELISA signal in presence of PSMA antigen” value was 0.198.
In the case of B14, the “phage binding ELISA signal in presence of PSMA antigen” value is reported as 0.0652.
In the case of B15, the “phage binding ELISA signal in presence of PSMA antigen” value is reported as 0.101.

These binders were tested against T2, PSMA Fab (biotinylated (site not stated)) (assay: clonal phage ELISA; biotinylated PSMA Fab on neutravidin plate pre-incubated with PSMA antigen as competitor; anti-M13 HRP detection;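 note: crude clonal phage supernatants briefly incubated on wells preloaded with PSMA antigen in blocking buffer, or buffer only as control, bound phage detected with HRP-conjugated anti-M13 antibody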).
T2 construct: Biotinylated PSMA Fab captured on neutravidin plates in the phage ELISA; also called Anti-PSMA Fab; 006 PSMA Fab
In the case of PAKWCVPSWMCSEI [Phage-2440], the “Phage binding ELISA signal, Anti-PSMA Fab in presence of PSMA” value is reported as 0.0676.
In the case of VVKWCTPPWMCSVW [Phage-2450], the “Phage binding ELISA signal, Anti-PSMA Fab in presence of PSMA” value is reported as 0.104.
IEKWCTPPWMCLDH [Phage-2447] was tested, and the “Phage binding ELISA signal, Anti-PSMA Fab in presence of PSMA” value was 0.0663.
With VVHWCTPAWMCYDM [Phage-2441] the “Phage binding ELISA signal, Anti-PSMA Fab in presence of PSMA” value was 0.0623.
With YEKWCTPTWMCSWL [Phage-2446] the “Phage binding ELISA signal, Anti-PSMA Fab in presence of PSMA” value was 0.218.
In the case of GAIWCIPQWMCAWN (cysteine pairing not given here; also: displayed as fusion to phage pIII) [Phage-2443], the “Phage binding ELISA signal, Anti-PSMA Fab in presence of PSMA” value is reported as 0.132.
With LHKLCTPTWMCEGF [Phage-2442] the “Phage binding ELISA signal, Anti-PSMA Fab in presence of PSMA” value was 0.0712.
EEPWCIPSWMCALT (cysteine pairing not given here; also: displayed as fusion to phage pIII) [Phage-2449] was tested, and the “Phage binding ELISA signal, Anti-PSMA Fab in presence of PSMA” value was 0.0689.
In the case of EAKWCIPNWMCEMA [Phage-2438], the “Phage binding ELISA signal, Anti-PSMA Fab in presence of PSMA” value is reported as 0.0622.
In the case of EMNWCIPAWMCEGR [Phage-2437], the “Phage binding ELISA signal, Anti-PSMA Fab in presence of PSMA” value is reported as 0.0633.
With LERWCIPSWMCTED [Phage-2445] the “Phage binding ELISA signal, Anti-PSMA Fab in presence of PSMA” value was 0.0674.
In the case of EVKWCIPAWMCVED [Phage-2444], the “Phage binding ELISA signal, Anti-PSMA Fab in presence of PSMA” value is reported as 0.0892.
With ESKWCIPEWMCEQR [Phage-2448] the “Phage binding ELISA signal, Anti-PSMA Fab in presence of PSMA” value was 0.0688.
MPKWCTPSWMCAVQ (cysteine pairing not given here; also: displayed as fusion to phage pIII) [Phage-2439] was tested, and the “Phage binding ELISA signal, Anti-PSMA Fab in presence of PSMA” value was 0.0845.

These binders were tested against T3, 006 PSMA Fab (biotinylated (site not given)) (assay: clonal phage ELISA on plate-bound PSMA Fab, competitor: PSMA antigen pre-incubated in the wells).
T3 construct: Biotinylated PSMA Fab captured on neutravidin coated plates for the clonal phage ELISA; also called Anti-PSMA Fab
For B16, the “Phage binding ELISA signal, Anti-PSMA Fab in presence of PSMA” value was 0.0722.
B17 was tested, and the “Phage binding ELISA signal, Anti-PSMA Fab in presence of PSMA” value was 0.0691.
With B18 the “Phage binding ELISA signal, Anti-PSMA Fab in presence of PSMA” value was 0.0745.
B19 was tested, and the “Phage binding ELISA signal, Anti-PSMA Fab in presence of PSMA” value was 0.0615.
In the case of B20, the “Phage binding ELISA signal, Anti-PSMA Fab in presence of PSMA” value is reported as 0.0722.
For B21, the “Phage binding ELISA signal, Anti-PSMA Fab in presence of PSMA” value was 0.0874.
In the case of B22, the “Phage binding ELISA signal, Anti-PSMA Fab in presence of PSMA” value is reported as 0.0855.

The binders below were run against T2, PSMA Fab (assay: clonal phage ELISA; biotinylated PSMA Fab on neutravidin plate; anti-M13 HRP detection; blocking buffer alone).
Procedure: as §1
PAKWCVPSWMCSEI [Phage-2440] was tested, and the “Phage binding ELISA signal, Anti-PSMA Fab” value was 1.31.
VVKWCTPPWMCSVW [Phage-2450] was tested, and the “Phage binding ELISA signal, Anti-PSMA Fab” value was 1.29.
With IEKWCTPPWMCLDH [Phage-2447] the “Phage binding ELISA signal, Anti-PSMA Fab” value was 1.29.
In the case of VVHWCTPAWMCYDM [Phage-2441], the “Phage binding ELISA signal, Anti-PSMA Fab” value is reported as 1.3.
With YEKWCTPTWMCSWL [Phage-2446] the “Phage binding ELISA signal, Anti-PSMA Fab” value was 1.29.
For GAIWCIPQWMCAWN (cysteine pairing not given here; also: displayed as fusion to phage pIII) [Phage-2443], the “Phage binding ELISA signal, Anti-PSMA Fab” value was 1.3.
In the case of LHKLCTPTWMCEGF [Phage-2442], the “Phage binding ELISA signal, Anti-PSMA Fab” value is reported as 1.3.
In the case of EEPWCIPSWMCALT (cysteine pairing not given here; also: displayed as fusion to phage pIII) [Phage-2449], the “Phage binding ELISA signal, Anti-PSMA Fab” value is reported as 1.29.
In the case of EAKWCIPNWMCEMA [Phage-2438], the “Phage binding ELISA signal, Anti-PSMA Fab” value is reported as 1.31.
For EMNWCIPAWMCEGR [Phage-2437], the “Phage binding ELISA signal, Anti-PSMA Fab” value was 1.31.
For LERWCIPSWMCTED [Phage-2445], the “Phage binding ELISA signal, Anti-PSMA Fab” value was 1.3.
In the case of EVKWCIPAWMCVED [Phage-2444], the “Phage binding ELISA signal, Anti-PSMA Fab” value is reported as 1.3.
For ESKWCIPEWMCEQR [Phage-2448], the “Phage binding ELISA signal, Anti-PSMA Fab” value was 1.29.
MPKWCTPSWMCAVQ (cysteine pairing not given here; also: displayed as fusion to phage pIII) [Phage-2439] was tested, and the “Phage binding ELISA signal, Anti-PSMA Fab” value was 1.31.

These binders were tested against T3, 006 PSMA Fab (assay: clonal phage ELISA, biotinylated PSMA Fab on neutravidin plate, anti-M13 HRP detection;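 note: crude clonal phage supernatants added to wells pretreated with blocking buffer either with or without PSMA antigen, bound phage read after washing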).
Procedure: as §1
In the case of B16, the “Phage binding ELISA signal, Anti-PSMA Fab” value is reported as 1.21.
For B17, the “Phage binding ELISA signal, Anti-PSMA Fab” value was 1.2.
With B18 the “Phage binding ELISA signal, Anti-PSMA Fab” value was 1.2.
For B19, the “Phage binding ELISA signal, Anti-PSMA Fab” value was 1.21.
With B20 the “Phage binding ELISA signal, Anti-PSMA Fab” value was 1.21.
For B21, the “Phage binding ELISA signal, Anti-PSMA Fab” value was 1.21.
B22 was tested, and the “Phage binding ELISA signal, Anti-PSMA Fab” value was 1.21.

These binders were tested against T1, 006 PSMA Fab (assay: phage ELISA: biotinylated PSMA Fab on neutravidin plate, clonal phage supernatant, anti-M13-HRP detection; blocking buffer alone).
Procedure: as §1
For B1, the “phage binding ELISA signal” value was 1.22.
With B2 the “phage binding ELISA signal” value was 1.22.
B3 was tested, and the “phage binding ELISA signal” value was 1.22.
B4 was tested, and the “phage binding ELISA signal” value was 1.22.
B5 was tested, and the “phage binding ELISA signal” value was 1.22.
B6 was tested, and the “phage binding ELISA signal” value was 1.22.
B7 was tested, and the “phage binding ELISA signal” value was 1.22.
B8 was tested, and the “phage binding ELISA signal” value was 1.22.
In the case of B9, the “phage binding ELISA signal” value is reported as 1.22.
B10 was tested, and the “phage binding ELISA signal” value was 1.22.
In the case of B11, the “phage binding ELISA signal” value is reported as 1.23.
For B12, the “phage binding ELISA signal” value was 1.22.
B13 was tested, and the “phage binding ELISA signal” value was 1.22.
With B14 the “phage binding ELISA signal” value was 1.23.
In the case of B15, the “phage binding ELISA signal” value is reported as 1.22.
